T1: Neisseria gonorrhoeae BamE (NgBamE) with a C-terminal 10x histidine tag (N. gonorrhoeae FA1090, UniProt Q5F5Y8 18-125)
T1 sequence (looked up): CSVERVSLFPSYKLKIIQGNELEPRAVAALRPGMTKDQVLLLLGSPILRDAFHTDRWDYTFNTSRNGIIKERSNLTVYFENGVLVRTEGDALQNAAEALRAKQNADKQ

B1: Neisseria gonorrhoeae BamD (NgBamD) (natural protein, N. gonorrhoeae FA1090, UniProt Q50985 17-267, looked up)
chain: CATQGTADKDAQITQDWSVEKLYAEAQDELNSSNYTRAVKLYEILESRFPTSRHARQSQLDTAYAYYKDDEKDKALAAIERFRRLHPQHPNMDYALYLRGLVLFNEDQSFLNKLASQDWSDRDPKANREAYQAFAELVQRFPNSKYAADATARMVKLVDALGGNEMSVARYYMKRGAYIAAANRAKKIIGSYQNTRYVEESLAILELAYKKLDKPQLAADTRRVLETNFPKSPFLTHAWQPDDMPWWRYWH
B2: Neisseria gonorrhoeae BamA (NgBamA) (natural protein)
chain: FTIQDIRVEGLQRTEPSTVFNYLPVKVGDTYNDTHGSAIIKSLYATGFFDDVRVETADGQLLLTVIERPTIGSLNITGAKMLQNDAIKKNLESFGLAQSQYFNQATLNQAVAGLKEEYLGRGKLNIQITPKVTKLARNRVDIDITIDEGKSAKITDIEFEGNQVYSDRKLMRQMSLTEGGIWTWLTRSDRFDRQKFAQDMEKVTDFYQNNGYFDFRILDTDIQTNEDKTRQTIKITVHEGGRFRWGKVSIEGDTNEVPKAELEKLLTMKPGKWYERQQMTAVLGEIQNRMGSAGYAYSEISVQPLPNAGTKTVDFVLHIEPGRKIYVNEIHITGNNKTRDEVVRRELRQMESAPYDTSKLQRSKERVELLGYFDNVQFDAVPLAGTPDKVDLNMSLTERSTGSLDLSAGWVQDTGLVMSAGVSQDNLFGTGKSAALRASRSKTTLNGSLSFTDPYFTADGVSLGYDIYGKAFDPRKASTSVKQYKTTTAGGGVRMGIPVTEYDRVNFGLAAEHLTVNTYNKAPKRYADFIRKYGKTDGADGSFKGLLYKGTVGWGRNKTDSASWPTRGYLTGVNAEIALPGSKLQYYSATHNQTWFFPLSKTFTLMLGGEVGIAGGYGRTKEIPFFENFYGGGLGSVRGYESGTLGPKVYDEYGEKISYGGNKKANVSAELLFPMPGAKDARTVRLSLFADAGSVWDGRTYTAAENGNNKSVYSENAHKSTFTNELRYSAGGAVTWLSPLGPMKFSYAYPLKKKPEDEIQRFQFQLGTTF
B3: Neisseria gonorrhoeae BamC (NgBamC), with the HG2 domain (natural protein, N. gonorrhoeae FA1090, UniProt A0ACH0F7W2 42-398, looked up)
chain: CSGSKTEQPKLDYQSRSHRLIKLEVPPDLNNPDQGNLYRLPAGSGAVRASDLEKRRTPAVQQPADAEVLKSVKGVRLERDGSQRWLVVDGKSPAEIWPLLKAFWQENGFDIESEEPAIGQMETEWAENRAKIPQDSLRRLFDTVGLGGIYSTGERDKFIVRIEQGKNGVSDIFFAHKAMKEVYGDKNKDTTMWQPSASDPNLEAAFLTRFMQYLGVDGRQAENALAKKPTLPAANEMARIEGKSLIVFGDYGRNWRRTGLALDRIGLTVVGQNTERHAFLVQKAPNESNAVTEQKPGLFKRLLGKGKAEKPAEQPELIVYAEPVADGSRIVLLNKDGSAYAGKDASALLGKLHSELR

These binders were tested against T1, Neisseria gonorrhoeae BamE (NgBamE) … (assay: co-purification).
In the case of B1, the “stoichiometry N” value is reported as 1. In the case of B2, the “stoichiometry N” value is reported as 1. In the case of B3, the “stoichiometry N” value is reported as 1.

Reference: publication PMC12469859 (Structure (London, England : 1993), 2025)
